The data set relates to Bacillus subtilis DB104 (SP-AmyQ fusion secretion). Nature of the data set: AmyQ secretion efficiency, weighted average sort bin (1 = best secretion, 10 = worst) (bin number (weighted average, 1-10)); higher = lower secretion efficiency. In outline: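 B. subtilis DB104 library expressing mature AmyQ fused to designed signal peptides (amyE-integrated) was encapsulated at about 0.3 cells per ~65 nL alginate bead with fluorescein-starch, grown about 13 h at room temperature and nile red stained. Occupied beads were sorted by large-particle flow cytometry into 10 equally populated bins by green/red fluorescence ratio, and each bin's amplicons were Illumina-sequenced. Secretion score is the read-frequency-weighted average bin number, normalised to beads per bin, excluding low-abundance sequences.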

Several values for one entry are separate records, joined by “and”; a condition that tells them apart may be missing. Equal entries are not always repeated.

Experimental findings from the supplement of paper PMC9942255 are described below.

The sequence MNLNTILLSSALSLGMLVSAAPVLATSS gave an AmyQ secretion efficiency of 1.5.
Under MKKAFLVFLSVVLVTTVFLVKQQESVAQAADD stands 4.45; under MKKGIIRTGRQSFVLFFALSTGITGVQAAPA, 5.13.
As to MTTKFTALAVFLLCFMPAAVIEHTQASLL, the AmyQ secretion efficiency was 5.46.
To MTKVMLATALFLGLTPAGANAADL belongs 5.8.
Under MRKKRVITCVMAASLTLGSLLPAGYASGKED stands 3.86; under MKKKQVMLRKKKAAGLGLTALHSAPAAKAAPL, 7.14.
Under MKRQRLLVSLRVWMVFLMNWVTPDRKTAAAAVY stands 6.95; under MAIIIAIIAAVIVIAALITFNVRNMSPG, 7.67; under MKKAFILSAAAAVGLFTFGASAKEL, 5.43.
Regarding MKLSVKIAGVLTVAAAAMTAKMYATQKGN, the AmyQ secretion efficiency came out at 7.51.
As for MRKSLITLGLASVIGTSSFLIPFTSKTASAETL, the AmyQ secretion efficiency is 2.73 and 5.9 and 4.16.
To MKKRFSLIMMTGLLFGLTSPAFAAPK belongs 1.77; to MKKAFLVFLSVVLVTTVFLRKKRRKVAQAKQL, 6.27.
The sequence MKKLLAAGIIGLLTVRKKSPSFAAEK came in with an AmyQ secretion efficiency of 8.11.
Under MKLAKRVSALTPSTTLAITAKLKEL stands 6.8; under MKRFSTAYLLLLGILCSAAVFLIGAPSRALGAEV, 3.05.
Under MLKKKWMVGLLAGCLAAGGFSYNAFADEE stands 6.94; under MFKKHTISLLIIFLLASAVLAKPMEAHTV, 2.67.
To MKRTWNGCGQGQLSVLLVAGSVPFHAEAKKP belongs 2.05.
MLKKIALTLCPAIVGSLLFFTAPASADEE registered an AmyQ secretion efficiency of 3.58.
Under MFNRLFRVCFLAALIMAFVFFIVFTLPNSVYAQKP stands 2.03; under MLTKRGRYYYRTLLGLIAWFPGAAQAEEK, 9.36; under MKKAAAVLLSLGLVFGFSYGAGHVAETKTK, 5.95.
To MKRKRLLSTLLIGIMLLTFAPSAFAKQD belongs 1.87; to MKKQIITATTAVVLGSTLFAGATGFAFAPASAQSI, 3.63.
To MTKKAWFLPLVCVLLISGWLAPAASASAQTK belongs 1.59; to MSSTITFVLTMCFLGLILFVPTALADNS, 2.16.
Regarding MRMLWRSLALCGLALPCAQAAEP, the AmyQ secretion efficiency was 6.75.
Under MILKSKLLLSCLALSTVFVATTIANAPTH stands 6.38.
To MKKWIYVVLVLSIAGIGGFSGHAASS belongs 5.88; to MIRSISIFITCLLITLLTMGGMIASPASAAGT, 2.35; to MRSYIKVLTMCFLGLILFVPTALAAEE, 3.07.
To MKMKSGMEQAVSVLLLLSRLPASLTSE belongs 3.77; to MGMKKKLSLGVASAALGLALVGGGGWAAFN, 6.46.
As to MLLKWMSGLLLVAVGFSFTQVMVHAGET, the AmyQ secretion efficiency came out at 5.02.
To MKKKRALTLCPAIVGSLLFFTAPASAHVS belongs 3.92; to MKLKKRFLVALTMCGGLFVTPAKAVKT, 7.15; to MKKRLIGFLVLVPALIMSGITLKEANKK, 6.33.
To MKRKLLSSLAISASAPTASFAAES belongs 7.94.
To MKKRKRRFLLVSFVLFFALSTGITGVQAAPA belongs 2.95.
Consider MTKKAWFLTLVCVLLISGWLAPAASASAQTT, for which the AmyQ secretion efficiency was 1.56.
Under MMKKLFHSTLIVLLFFSFFGVKRKIHAKKQ stands 3.3; under MKVCQKSIVRFLVSLIIGTFVISVPFMANAEED, 3.09; under MKKQIITATTAVVLGSTLFADDEASAQSI, 2.17.
Under MRKLKRVLLLLVTGLFMSLFAVTATASAQTG stands 1.02; under MGLGKKLSVAVAASFMSLSISLPGTQAAEG, 1.77; under MKKRLIGFLVLVPALIMSGITLGEANKK, 6.8.
To MKNMSCKLVVSVTLFFSFLTIGPLAHNQNS belongs 5.52.
In turn, MRKYTTKGYQKTYFLSVLSGGHHESKAFPV showed an AmyQ secretion efficiency of 8.3.
Under MRKKRYGKCRQGSSLTLGSLLPAGYATAKED stands 8.17.
To MPYLKRVLLLLVTGLFMSLFAVTATASAQTD belongs 1.91; to MFMLTMNNMAIIIAIIAAVIVIAALITFNVRNASPG, 6.62; to MFKFKKNFLVGLSAALMSIEDEEDDASAAST, 6.33.
MLKRTSFVSSLFISSAVLLSILLPSGQTHAQSA registered an AmyQ secretion efficiency of 1.61.
As to MLCVMMLLFSAIASFPVSNQAKDQ, the AmyQ secretion efficiency amounted to 5.37.
To MRPVFPLILSAVLFLSCFFGATQTEASASKR belongs 2.13; to MKRLCLWFTVFSLFLVLLPGKALGKKR, 2.36.
MKLSVKIAGVLTVAAAAMDDEDDEATAKGN returned an AmyQ secretion efficiency of 7.46.
Under MHLIRAAGAVCLAVVLIAGCRFNEDQHQAEDENT stands 5.99; under MKKWTIIAVSLAIAIVLFMYTKGEAKAAGM, 2.14.
To MGMKKKSRTGVASAALGLALVGGGTWAAFN belongs 5.34; to MRKILALFVLSLGLLSFMVTPVSAASK, 1.58; to MPYLKRVLLLLVTGLFMSLFAVTATFSAQTG, 4.6.
As to MKKKLAAGLTASAIVGTTLVVVFAEAATI, the AmyQ secretion efficiency was determined as 6.57.
Under MPYLKRVLLLLVTGLFMSLFRKKATASAQTG stands 7.42; under MLKRTSFVSSLFISSAVLLSILLGSGQAHAQSA, 2.06.
For the sequence MKKWMITIAMRTLAGIALFVFISPLKSHKT, the AmyQ secretion efficiency worked out at 7.06.
Under MKKKKRYSQRFLVALTMCGGLFVTPAKAVKT stands 6.94; under MSSCGGILIVCSLAAILLLIPSVSFAADS, 4.26; under MKLSVKIAGVLTVAAAAMEEKMYATAKGN, 7.66.
Under “MKRLTLVCSIVFILRKLFYRLKIGTIPIQKLPVYKASAKTA” stands 6.99.
For MKKQIITATTAVVLGSTLFAGAPPATASVPVVGASAQSI, the AmyQ secretion efficiency came to 2.17.
Under MKLAKRTSALTPSTTLAITAKAKEL stands 6.93; under MRKKTKNRLISSVLSTVVISSLLFPGAAGCSSK, 5.98; under MTMLRKIIGWILLLCIIPLFAFTVIASLKEV, 3.47.
To MKRFLIGAGVAAVILSGWTIADHQTHSQEM belongs 5.66; to MLKKIALTLCPAIVGSLLFFTAPPSAHVS, 6.86.
Take MAIIIAIIAAVIVIAALITFNVRNKSPG: the AmyQ secretion efficiency amounted to 6.36.
Under MKSKWMSGLLLVAVGFSFTQVMHHAGET stands 6.66; under MKRIRIPMTLALGAALTIAPLSFPSAEEN, 6.68; under MFKKLLLATSALTFSLSLVLEEDDHAKAQEV, 3.32.
Under MKSKGSIMACLILFSFTITTFINTETISYFSN stands 7.41; under MKKAFLVFLSVVLVTTVFLVVSFESVAQAKQL, 2.33.
Under MKKRRKKLLAAGIIGLLTVSIASPSFAAEK stands 3.36.
With MKLWMRKTLVVLFTIVTFGLVSPPAASMADKP, the AmyQ secretion efficiency was 1.85.
To MKKIWIGMLAAAVLLLMVPKVSPAVPSGFSLADAA belongs 6.35.
MKLKKRVSMFLVALTMCGGLFVRRRKRAKAVKT displayed an AmyQ secretion efficiency of 6.98.
As for MKKRLIAPMLLSAASLAFFAEEEEDEAQAAAY, the AmyQ secretion efficiency amounted to 3.9.
To MRPVFPLILSAVLFLSCFFGARQTEASESKR belongs 2.54; to MKWMCSICCAAVLLAGGALQAEAV, 2.66.
With MLCVMMLLFSAIAVSFPVSAQAKDQ, the AmyQ secretion efficiency worked out at 5.09.
Under MRKYTVIASILLSFLSVLRGGHHRSKAFPV stands 7.77; under MKKVLMAFIICLSLILSVLAAPPSGAKAASK, 1.85; under MKKLLAAGIIGLLTVSIASPAFAAEK, 2.44.
To MRSKKLWISLLFALTLIKKKAFSNMSAQAAGK belongs 8.69.
To MKKTIMSFVAVAALSTTAFGAHGVFPASASAKEI belongs 3.09.
MKKWIYVVLVLSIAGIGGFSVHRASS registered an AmyQ secretion efficiency of 6.42.
To MRRRWRSLALCGLALTLAPCAQAAEP belongs 2.05.
To MAIIIAIIAAVIVIAALITFNVRNGSPG belongs 7.66.
To MKKQIITATTAVVLGSTLFAGAMSAQSI belongs 1.54; to MSVMTTMLLSTAAGLLLSLTATSVSAHYV, 4.5; to MKLRKVLTGSVLSLGLLVSASPAFATRK, 2.53.
MKQGKFSVFLILLLMLTLVVAPKEKAEAASD showed an AmyQ secretion efficiency of 1.02.
Under MNLRKILLSSALSLGMLVSAAPWLATSS stands 6.1; under MPYLKRKGYQYQSGLFMSLFAVTATASAQTG, 4.4.
MGGVFPLILSAVLFLSCFFGARQTEASASKR: the AmyQ secretion efficiency came to 4.03.
MGSTSFILWISLLFALTLIFTMAFSNMSAQAAGK displayed an AmyQ secretion efficiency of 6.79.
